Results on 1 molecule are retold here after patent US20260176627A1 (University of Washington, published 2026).

The target of the test is T1, NLS-λN-GFP1-10.
T1 construct: also called LambdaN-GFP1-10; second protein of pCMV::GFP11-NLS-MCP-IRES-NLS-λN-GFP1-10; not shown: my translati
The experiment in a line: split-GFP complementation, fluorescence in transfected HEK293T cells.

B1: GFP11-NLS-MCP (other, not shown: small tags and cut ends)
chain: MRDHMVLHESVNAAGITASNFTQFVLVDNGGTGDVTVAPSNFANGVAEWISSNSRSQAYKVTCSVRQSSAQKRKYTIKVEVPKVATQTVGGVELPVAAWRSYLNMELTIPIFATNSDCELIVKAMQGLLKDGNPIPSAIAANSGLY
notes: linker and NLS are known only from the DNA; also called first protein of pCMV::GFP11-NLS-MCP-IRES-NLS-λN-GFP1-10; Split-GFP-RNAadaptor (one of the pair)
For B1, the binding result is recorded as “binds”.
